Test results published in patent US20240125796A1.

Experiments:
[1] = biological target: Herceptin antibody labelled with biotin; assay: mass photometry; consecutive measurement with 25 mM free biotin, release of Herc-B from immobilised streptavidin
[2] = biological target: Herceptin antibody labelled with biotin; assay: mass photometry; first 500 s after 25 mM free biotin, compared with the PBS control
[3] = biological target: Herceptin antibody labelled with biotin; assay: mass photometry; first 500 s after 25 mM free biotin, release of Herc-B from immobilised streptavidin
[4] = biological target: Herceptin antibody labelled with biotin; assay: mass photometry; consecutive measurement with 25 mM free biotin, compared with the PBS control
[5] = biological target: Herceptin antibody labelled with biotin; assay: mass photometry; control with PBS as release agent, streptavidin-coated coverslip loaded with Herc-B

streptavidin (from UniProt P22629 37-163)
Difference UB - B [1]: 84 counts
Unbinding (UB) events, MW 76 to 273 kDa [1]: 565 counts
Percentage increase to control [2]: 90.5%
Difference UB - B [3]: 179 counts
Unbinding (UB) events, MW 76 to 273 kDa [3]: 460 counts
Percentage increase to control [4]: 79.8%
Difference UB - B [5]: 17 counts
Unbinding (UB) events, MW 76 to 273 kDa [5]: 161 counts
